{
  "source": "patent US7981863",
  "molecular_target": "VEGF receptor Flk-1 on rat neural stem cells (rat) (UniProt O08775)",
  "sequence (O08775 20-1343)": "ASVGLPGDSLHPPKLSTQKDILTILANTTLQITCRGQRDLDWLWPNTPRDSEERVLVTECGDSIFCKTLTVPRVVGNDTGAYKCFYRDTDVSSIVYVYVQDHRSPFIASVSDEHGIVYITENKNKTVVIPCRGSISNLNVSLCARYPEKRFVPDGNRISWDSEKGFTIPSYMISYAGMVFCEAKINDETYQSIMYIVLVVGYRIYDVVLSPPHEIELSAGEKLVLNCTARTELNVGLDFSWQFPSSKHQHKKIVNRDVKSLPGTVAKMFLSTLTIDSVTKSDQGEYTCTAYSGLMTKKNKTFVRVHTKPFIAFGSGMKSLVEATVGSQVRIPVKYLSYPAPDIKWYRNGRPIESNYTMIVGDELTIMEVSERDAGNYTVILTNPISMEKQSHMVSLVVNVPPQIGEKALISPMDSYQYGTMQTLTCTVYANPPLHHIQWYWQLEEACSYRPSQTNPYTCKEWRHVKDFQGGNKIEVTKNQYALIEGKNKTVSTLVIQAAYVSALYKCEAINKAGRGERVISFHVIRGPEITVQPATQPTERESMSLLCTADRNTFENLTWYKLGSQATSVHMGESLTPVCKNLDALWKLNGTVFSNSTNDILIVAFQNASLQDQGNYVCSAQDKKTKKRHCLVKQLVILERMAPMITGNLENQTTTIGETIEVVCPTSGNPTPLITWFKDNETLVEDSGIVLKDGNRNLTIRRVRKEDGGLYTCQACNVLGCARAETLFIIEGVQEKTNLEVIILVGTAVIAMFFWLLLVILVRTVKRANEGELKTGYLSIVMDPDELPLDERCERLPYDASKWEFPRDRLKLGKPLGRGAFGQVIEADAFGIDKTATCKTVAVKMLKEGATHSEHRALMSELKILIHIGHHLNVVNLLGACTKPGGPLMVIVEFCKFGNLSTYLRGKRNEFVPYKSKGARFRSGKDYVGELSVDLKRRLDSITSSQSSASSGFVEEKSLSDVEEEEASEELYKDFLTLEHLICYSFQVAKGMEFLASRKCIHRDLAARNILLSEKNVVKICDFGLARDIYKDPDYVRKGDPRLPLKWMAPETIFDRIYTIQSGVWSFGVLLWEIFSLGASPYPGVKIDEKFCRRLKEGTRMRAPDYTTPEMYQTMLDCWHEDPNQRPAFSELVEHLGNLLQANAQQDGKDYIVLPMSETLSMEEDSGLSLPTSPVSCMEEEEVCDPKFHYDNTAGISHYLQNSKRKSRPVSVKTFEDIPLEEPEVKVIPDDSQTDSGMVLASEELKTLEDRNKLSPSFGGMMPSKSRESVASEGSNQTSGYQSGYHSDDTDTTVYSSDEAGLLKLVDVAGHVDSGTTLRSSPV",
  "test": "cell-based or functional assay",
  "data": [
    {"substance": "mouse recombinant VEGF164 (from UniProt Q00731 27-190) (ligand)", "values": [
      {"measurement": "ED50 of expansion of neural stem cell cultures (cell number after 7 days)", "result": 10, "unit": "ng/mL"},
      {"measurement": "concentration of maximal stimulation of neural stem cell expansion", "result": 50, "unit": "ng/mL"}
    ]}
  ]
}
